The text below walks through data of patent US20240325481A1 (MOREHOUSE SCHOOL OF MEDICINE, published 2024).

This assay concerns the target gp120 of HIV-1NL4-3 virus (on virus particles) (HIV-1 (NL4-3)). The assay can be described thus: cell-based or functional assay.

B1: MoMo30 protein (hevamine A-related protein) from Momordica balsamina, purified from leaf extract (other)
chain: GGIATYWGQDTREGRLTAACATGKFQIINIGFLSTFGNGRPPQVNLTRHCSPISNGCRNVSVGVLNCRNDGVKVMLSIGGPHGSYSLSSAAEAIDLADYIWNNFLGGRSTSLRPFGDVPLDGVDFRIERGQFSHYYTMVARRLHDYGRQCSRKVYLTAAPGCRFPDKYLTELLHTGLFDYVWVRFFDDRQCQYNSVNPSGFWWSWMRWINSIPARKFYVGIPASEEAGDGYVAPEVLIKEVLPFTKKFTNYGGVMLFDLSNDVQTNYSSIISNRV
As to B1, the “IC50, inhibition of HIV-1NL4-3 infectivity in MAGI cell assay” value stood at 2.8 nM.
